Test results as given in IntAct's records for PubMed 16154084.

B1: Interferon regulatory factor 3 (Homo sapiens), Q14653 (parent)
chain: MGTPKPRILPWLVSQLDLGQLEGVAWVNKSRTRFRIPWKHGLRQDAQQEDFGIFQAWAEATGAYVPGRDKPDLPTWKRNFRSALNRKEGLRLAEDRSKDPHDPHKIYEFVNSGVGDFSQPDTSPDTNGGGSTSDTQEDILDELLGNMVLAPLPDPGPPSLAVAPEPCPQPLRSPSLDNPTPFPNLGPSENPLKRLLVPGEEWEFEVTAFYRGRQVFQQTISCPEGLRLVGSEVGDRTLPGWPVTLPDPGMSLTDRGVMSYVRHVLSCLGGGLALWRAGQWLWAQRLGHCHTYWAVSEELLPNSGHGPDGEVPKDKEGGVFDLGPFIVDLITFTEGSGRSPRYALWFCVGESWPQDQPWTKRLVMVKVVPTCLRALVEMARVGGASSLENTVDLHISNSHPLSLTSDQYKAYLQDLVEGMDFQGPGES

Variants of: B1
Settings: with cbp_human CREBBP

Effect of a mutation on the interaction, disrupting interaction:
L322A;P324A;I326A;V327A;L329A;I330A
C371A;L375A;M378A
E201A;E203A
S221A
